Earlier results in paper PMC4376447.

Molecular target: S100A10 (Homo sapiens) (UniProt P60903)
Experiment: ITC

Chain of UniProt P60903 (P60903 whole entry): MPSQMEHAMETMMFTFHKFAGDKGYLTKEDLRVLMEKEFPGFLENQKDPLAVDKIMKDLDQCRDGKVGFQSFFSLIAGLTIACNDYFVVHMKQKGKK

Kd: 0.5 µM
Substance: Annexin A2 N-terminus (from UniProt P07355)
